Assay results reported in publication PMC3159454.
Where a chain is given by its changes, count along the chain named.

B1: CON control duplex (dsDNA)
DNA 1: AGACCAACATGAATTACGACAGGCTCAGCCGGG
DNA 2: CCCGGCTGAGCCTGTCGTAATTCATGTTGGTCT
B2: E74 duplex (dsDNA)
DNA 1: CTAGAGCTGAATAACCGGAAGTAACTCAT
DNA 2: CTAGATGAGTTACTTCCGGTTATTCAGCT

Legend:
[1] = biological target: T1, Elk-ets (HA-tagged ETS domain) (UniProt P19419 5-86); experiment: native gel EMSA
T1 sequence: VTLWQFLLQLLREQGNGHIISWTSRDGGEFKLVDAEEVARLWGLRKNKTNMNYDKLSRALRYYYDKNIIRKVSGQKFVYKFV

[2] = biological target: T1, Elk-ets (HA-tagged ETS domain); experiment: EMSA
Elk-ΔA = biological target: T2, Elk-ΔA (UniProt P19419 1-253); experiment: EMSA
T2 sequence: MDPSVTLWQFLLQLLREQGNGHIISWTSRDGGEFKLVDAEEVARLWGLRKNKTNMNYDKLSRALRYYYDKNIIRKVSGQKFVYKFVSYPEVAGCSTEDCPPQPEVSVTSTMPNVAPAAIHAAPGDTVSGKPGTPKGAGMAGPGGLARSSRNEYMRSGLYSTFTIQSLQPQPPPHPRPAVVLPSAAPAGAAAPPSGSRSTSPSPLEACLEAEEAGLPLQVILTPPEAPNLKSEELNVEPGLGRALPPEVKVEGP

[3] = biological target: PU.1-ets (HA-tagged ETS domain) (UniProt P17947 170-253); experiment: EMSA
[4] = biological target: T3, ets-DM (HA-Elk-ets DNA-binding mutant) (UniProt P19419 5-86, R65A;Y66F); experiment: native gel EMSA
T3 sequence: T1 sequence with R61A, Y62F

Binder | binding result [1] | binding result [2] | binding result (Elk-ΔA) | binding result [3] | binding result [4]
B1 | no binding |  |  |  | 
B2 |  | binds | binds | binds | no binding
